Experimental data taken from patent US20220412989A1, “COMPOSITIONS AND METHODS FOR DETECTING CELLS UNDERGOING FERROPTOSIS USING AN ANTIBODY” (THE TRUSTEES OF COLUMBIA UNIVERSITY IN THE CITY OF NEW YORK, priority 2020, published 2022).
Entries after “also recorded” stand apart in the source; their conditions may differ.

Legend:
[1] = molecular target: T1, TfR1 in human brain tissue (Homo sapiens, UniProt P02786); assay: Staining of post-mortem human brain tissues; conditions: Huntington's disease and control
T1 construct: human HD and control brain tissues were fixed in 4% PFA for 24 h; from tissue; host or cells: post-mortem human brain (Huntington's disease and control)
T1 sequence (P02786 whole entry): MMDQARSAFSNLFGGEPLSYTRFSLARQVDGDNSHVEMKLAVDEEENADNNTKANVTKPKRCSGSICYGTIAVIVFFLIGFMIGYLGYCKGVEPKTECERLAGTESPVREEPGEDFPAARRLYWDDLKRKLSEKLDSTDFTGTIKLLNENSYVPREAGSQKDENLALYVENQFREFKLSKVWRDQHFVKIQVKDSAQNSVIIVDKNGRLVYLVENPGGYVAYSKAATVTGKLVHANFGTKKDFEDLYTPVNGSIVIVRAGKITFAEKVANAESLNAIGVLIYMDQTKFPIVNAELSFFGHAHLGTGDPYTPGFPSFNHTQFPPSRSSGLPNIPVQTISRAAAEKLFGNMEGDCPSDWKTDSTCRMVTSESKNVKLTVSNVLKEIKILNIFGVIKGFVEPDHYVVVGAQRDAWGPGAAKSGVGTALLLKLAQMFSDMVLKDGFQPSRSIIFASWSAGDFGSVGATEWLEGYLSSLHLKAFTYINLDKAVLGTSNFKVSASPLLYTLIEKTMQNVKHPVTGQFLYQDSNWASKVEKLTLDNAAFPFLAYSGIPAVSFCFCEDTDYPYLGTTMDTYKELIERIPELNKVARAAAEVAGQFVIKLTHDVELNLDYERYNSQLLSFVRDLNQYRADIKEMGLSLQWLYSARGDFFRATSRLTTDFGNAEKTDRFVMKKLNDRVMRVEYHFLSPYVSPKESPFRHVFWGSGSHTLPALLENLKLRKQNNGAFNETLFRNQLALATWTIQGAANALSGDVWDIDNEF
Protocol: FIGS. 12A-12B show 3F3 FMA staining in human Huntington's disease brains and mouse tissues. In FIG. 12A, human HD and control brain tissues were fixed in 4% PFA for 24 h, perfused in 30% sucrose for 24 h, and stained with DAPI (nuclei, blue) and 3F3 FMA (red). The expression level of TfR1 is low. There was no difference between HD and control groups. In FIG. 12B, mouse liver tissues and mouse GBM tissues were fixed and stained with DAPI (nuclei, blue) and 3F3 FMA (red). 3F3 FMA was able to recognize mouse TfR1.
(§1) Tumor tissues were fixed in 4% paraformaldehyde (PFA) for 24 h at 4° C. followed by washing with PBS three times. The tissues were perfused in 30% sucrose for 24 h at 4° C. for cryo-protection. The samples were embedded in OCT cryostat sectioning medium, and then moved directly into a cryostat. After equilibration of temperature, frozen tumor tissues were cut into 5 μm thick sections. Tissue sections were mounted on to poly-L-lysine coated slides by placing the cold sections onto warm slides. […] All images were captured on a Zeiss LSM 800 confocal microscope at Plan-Apochromat 63x/1.40 Oil DIC objective with constant laser intensity for all analyzed samples. The intensity above threshold of the fluorescent signal of the bound antibodies was analyzed using NIH ImageJ software (ImageJ, RRID:SCR_003070). Data were expressed as fold change comparing with the vehicle.

[2] = test system: HT-1080 cells; assay: Flow cytometry antibody staining without permeabilization; type: cell-based, human
Protocol: HT-1080 cells were treated with DMSO or 1 μM RSL3 for 4 h. The cells were harvested by 0.25% Trypsin-EDTA (1×) (Invitrogen 25200-114) and washed with HBSS once. The cells were resuspended in 5% goat serum (ThermoFisher 50197Z) for 30 min on ice. The cells were incubated with mAb 3F3 FMA (1:500 dilution), Transferrin Receptor/CD71 Monoclonal Antibody, Clone: H68.4, Invitrogen (Thermo Fisher Scientific Cat #13-6800, RRID:AB_2533029, 1:250 dilution), CD71 (3B8 2A1) (Santa Cruz Biotechnology Cat #sc-32272, RRID:AB_627167, 1:50 dilution), Anti-Malondialdehyde antibody (Abcam Cat #ab6463, RRID:AB_305484, 1:400 dilution), Anti-4 Hydroxynonenal antibody (Abcam Cat #ab46544, RRID:AB_722493, 1:50 dilution), and mouse mAb 1F83 (1:100 dilution), which specifically recognizes the malondialdehyde (MDA)-lysine adduct 4-methyl-1,4-dihydropyridine-3,5-dicarbaldehyde (MDHDC) (Yamada et al., 2001) for 1 h on ice. The cells were washed with HBSS for 5 min three times by centrifugation. […] Fluorescence intensity was measured on the FL1 channel with gating to record live cells only (gate constructed from DMSO treatment group). A minimum of 10,000 cells were analyzed per condition. […]

[3] = test system: HCC (Huh-7) mouse xenograft tumor tissue; assay: Staining of hepatocellular carcinoma mouse xenograft tumor tissue sections; set-up: species or system human; conditions: 50 mg/kg IKE once daily IP 2 days
Protocol: as §1, with “slides. Slides were stored at −80° C. until staining. For staining, slides were warmed to room temperature followed by washing with PBS twice. A hydrophobic barrier pen was used to draw a circle on each slide. The slides were permeabilized with PBS with 0.4% Triton X-100 (PBT) twice before non-specific-binding blocking by incubating the sections with 10% goat serum (ThermoFisher 50197Z) for 30 min at room temperature.” for “slides.”, “vehicle. […]” for “vehicle.”

staining signal in human brain tissue [1]: lack of signal
B1: 3F3-FMA: murine monoclonal IgG1 raised against ferroptotic membrane fractions; antigen is human transferrin receptor protein 1 (TfR1) (antibody, V domains shown)
VH: EVLLQQSGTELVRPGALVKLSCKASGFNIQDLYIHWVKQRPEQGLEWIGWIDPETDNTIYDPKFQGKASITADTSSNTAYLQLSSLTSEDTAMYYCSTGLLQWYFDVWGAGTAVTVSS
VL: DIVMTQSPSSLAMSIGQKVTMRCKSSQSLLNSYNQKNCLAWYQQKPGQSPKLLLYFVSTRESGVPDRFIGSGSGTDFTLTISSVQAEDLADYFCQQHYSTPLTFGAGTKLELK
staining intensity in RSL3-treated cells by flow cytometry ([2]; 1 μM RSL3, 4 h vs DMSO): increased intensities | staining intensity in STS-induced apoptosis by flow cytometry ([2]; 1 μM STS, 6 h vs DMSO): decreased intensity; also recorded: decreased intensities | staining intensity, IKE-treated vs vehicle samples [3]: increased intensities; also recorded: difference in intensities
